{"source": "patent US20230226096A1", "about": "(Orna Therapeutics, Inc., priority 2020, published 2023)"}
{"tested_on": "HEK293 cells", "assay_type": "cell-based, human", "details": "luminescence from secreted Gluc in supernatant 24 hours after transfection of HEK293 cells; circular RNA encoding Gluc with the named IRES (UTR truncated to 675 nt)"}
{"molecule": "A73-675 (nucleic acid) DNA: TTACTCCATTCAGCTTCTTCGGAACCTGTTCGGAGGAATTAAACGGGCACCCATACTCCCCCCACCCCCCTTTTGTAACTAAGTATGTGTGCTCGTGATCTTGACTCCCACGGAACGGACCGATCCGTTGGTGAACAAACAGCTAGGTCCACATCCTCCCTTCCCCTGGGAGGGCCCCCGCCCTCCCACATCCTCCCCCCAGCCTGACGTATCACAGGCTGTGTGAAGCCCCCGCGAAAGCTGCTCACGTGGCAATTGTGGGTCCCCCCTTCATCAAGACACCAGGTCTTTCCTCCTTAAGGCTAGCCCCGGCGTGTGAATTCACGTTGGGCAACTAGTGGTGTCACTGTGCGCTCCCAATCTCGGCCGCGGAGTGCTGTTCCCCAAGCCAAACCCCTGGCCCTTCACTATGTGCCTGGCAAGCATATCTGAGAAGGTGTTCCGCTGTGGCTGCCAACCTGGTGACAGGTGCCCCAGTGTGCGTAACCTTCTTCCGTCTCCGGACGGTAGTGATTGGTTAAGATTTGGTGTAAGGTTCATGTGCCAACGCCCTGTGCGGGATGAAACCTCTACTGCCCTAGGAATGCCAGGCAGGTACCCCACCTCCGGGTGGGATCTGAGCCTGGGCTAATTGTCTACGGGTAGTTTCATTTCCAATCCTTTTATGTCGGAGTC", "Expression": "1.30E+08"}
{"molecule": "A115-675 (nucleic acid) DNA: ACCTTTGTGCGCCTGTTTTATACCCCCCCCAACCTCGAAACTTAGAAGTAAAGCAAACCCGATCAATAGCAGGTGCGGCGCACCAGTCGCATCTTGATCAAGCACTTCTGTAACCCCGGACCGAGTATCAATAGACTGCTCACGCGGTTGAAGGAGAAAACGTTCGTTACCCGGCTAACTACTTCGAGAAACCCAGTAGCATCATGAAAGTTGCAGAGTGTTTCGCTCAGCACTACCCCCGTGTAGATCAGGCCGATGAGTCACCGCACTTCCCCACGGGCGACCGTGGCGGTGGCTGCGTTGGCGGCCTGCCTATGGGGCAACCCATAGGACGCTCTAATACGGACATGGTGCGAAGAGTCTATTGAGCTAGTTAGTAGTCCTCCGGCCCCTGAATGCGGCTAATCCTAACTGCGGAGCACATACCCTTAATCCAAAGGGCAGTGTGTCGTAACGGGTAACTCTGCAGCGGAACCGACTACTTTGGGTGTCCGTGTTTCCTTTTAATTTTTACTGGCTGCTTATGGTGACAATTGAGGAATTGTTGCCATATAGCTATTGGATTGGCCATCCGGTGACTAACAGAGCTATTGTGTTCCAATTTGTTGGATTTACCCCGCTCACACTCACAGTCGTAAGAACCCTTCATTACGTGTTATTTCTCAACTCAAGAAA", "Expression": "5.93E+07"}
{"molecule": "Aichivirus ETHP4 (nucleic acid, listed as Aichivirus sp.) DNA: TTACTCCATTCAGCTTCTTCGGAACCTGTTCGGAGGAATTAAACGGGCACCCATACACCCCCACCCCCTTTTTGCAACTTAAGTATGTGTGCTCGTGATCTTGACTCCCACGGAATGGATCGATCCGCTGGAGAACAAACTGCTAGATCCACATCCTCCCTTCCCTTGGGAGGACCTCGGTCCTCCCACATCCTCCCCCCAGCCTGACGTACCACAGGCTGTGTGAAGCCCCCGCGAAAGCCGCTCACGTGGCAATTGTGGGTCCCCCCTTCATTAAGACACCAGGTCTTTCCTCCTTAAGGCTAGTCCCGATGTGTGAATTCACATTGGGCAACTAGTGGTGTCACTGTGCGCTCCCAATCTCGGCCGCGGAGTGCTGTTCCCCAAGCCAAACCCCTGGCCCTTCACTATGTGCCTGGCAAGCATATCTGAGAAGGTGTTCCGCTGTGGCTGCCAGCCTGGTAACAGGTGCCCCAGTGTGCGTAACCTTCTTCCGTCTTCGGACGGTAGTGATTGGTTAAGATTTGGCGTAAGGTTCATGTGCCAACGCCCTGTGCGGGATGAAACCTCTACTACCCTAGGAATGCCAGGCAGGTACCCCACCCTCGGGTGGGATCTGAGCCTGGGCTAATTGTCTACGGGTAGTTTCATTTCCAATTCTTCTATGTCGGAGTC", "Expression": "1.78E+07"}
{"molecule": "Aichivirus Goiania (nucleic acid, listed as Aichivirus sp.) DNA: ACTCCATTCAGCTTCTTCGGAACCTGTTCGGAGGAATTAAACGGGCACCCATACACCCCCATCCCCTTTTTTGCAACTTAAGTATGTGTGCTCGTAATCTTGACTCCCACGGAATGGATCGATCCGCTGGAGAACAAACTGCTAGATCCACATCCTCCCTCCCCCCTGGGAGGACCTCGGTCCTCCCACATCCTCCCCCCAGCCTGACGTATCACAGGCTGTGTGAAGCCCCCGCGAAAGCTGCTCACGTGGCAATTGTGGGTCCCCCCTTCATCAAGACACCAGGTCTTTCCTCCTTAAGGCTAGTCCCGATGTGTGAATTCACATCGGGCAACTAGTGGTGTCACTGTGCGCTCCCAATCTCGGCCGCGGAGTGCTGTTCCCCAAGCCAAACCCCTGGCCCTTCACTATGTGCCTGGCAAGCATATCTGAGAAGGCGTTCCGCTGTGGCTGCCAGCCTGGTAACAGGTGCCCCAGTGTGCGTAACCTTCTTCCGTCCCCGGACGGTAGTGATTGGTTAAGACTTGGCGTAAGGTTCATGTGCCAACGCCCTGTGCGGGATGAAACCTCTACTGCCCTAGGAATGCCAGGCAGGTACCCCACCTTCGGGTGGGATCTGAGCCTGGGCTAATTGTCTACGGGTAGTTTCATTTCTAATTCTTTCATGTCGGAGTC", "Expression": "1.66E+07"}
{"molecule": "18-675 (nucleic acid) DNA: CCCACAGCAAGAATGCCATCATCTGTCCTCACCCCCAATTTTCCCTTTTCTTCCCCTGCAACCATTACGCTTACTCGCATGTGCATTGAGTGGTGCATGTGTTGAACAAACAGCTACACTCACATGGGGGCGGGTTTTCCCGCCCTACGGCCTCTCGCGAGGCCCACCCCTTCCCTCCCCTTATAACTACAGTGCTTTGGTAGGTAAGCATCCTGATCCCCCGCGGAAGCTGCTCACGTGGCAACTGTGGGGACCCAGACAGGTTATCAAAGGCACCCGGTCTTTCCGCCTTCAGGAGTATCCCTACTAGTGAATTCTAGCGGGGCTCTGCTTGGTGCCAACCTCCCCCAAATGCGCGCTGCGGGAGTGCTCTTCCCCAACTCACCCTAGTATCCTCTCATGTGTGTGCTTGGTCAGCATATCTGAGACGATGTTCCGCTGTCCCAGACCAGTCCAGTAATGGACGGGCCAGTGCGTGTAGTCGTCTTCCGGCTTGTCCGGGGCATGTTTGGTGAACCGGTGGGGTAAGGTTGGTGTGCCCAACGCCCGTACTTTGGTGACACCTCAAGACCACCCAGGAATGCCAGGGAGGTACCCCACCTCACGGTGGGATCTGACCCTGGGCTAATTGTCTACGGTGGTTCTTCTTGCTTCCACTTCTTTCTTCTGTTCACG", "Expression": "6.04E+07"}
{"molecule": "Tropivirus A (nucleic acid, Tropivirus A) DNA: TGTCGCATGTTGCCAACATCAAAATTCTGGGAGAGTCGCGAACTCCTTAACACTGCCTTGCCTCGACGGAGCCGTTGTTATAGTGTCGACGGGATACAAACATTAAACTAAACCCACTTGCCTCGACGGAACCCCTTACCTTTTATTTTATTTTATAGTATGAAAGTGAATCTTGTATGAATGTTCATAGAAAACTGCAAATGAGTACCACGTCTAACATGAGAGAATGATACTGGAGAAATCCAAGTTTAGAAGTCACTACGAATCCCAGCGGAAACAAGGGAATTCTGAGCTTCTAATAGGCGTTTAAGACTATTTGCAAAATTCTGGTGCGTAAGTGATATTTTCATTGCGTAGAACGCTGGTAACCACTCCGGCTAGTATAAGCATTGTTAGTCACTTATTATGAAACTCCACACTATCCTTTCTGGAGAAGCACACAAACTTACATGGTAAAGCTAGACCATTATCTTAAGCGGTGAGTACACTGCAACCTTGTAACAATGCTTGTATGACTACTTTTTGTATATCTTGAGCAATATTGTTGAGGTGGACATGTCCAAAGGTAATGTTGTTGGGAATGGAGGGGTCCATTTTCCCGTGCACGTAGTGTACTAGTATTGGGTGATAGCCTTGCGGCGGATCAACCATGTATTTTAATCCGTTGACTTTCAC", "Expression": "9.52E+04"}
{"molecule": "Kobuvirus 16317 (nucleic acid, listed as Kobuvirus sp.) DNA: TTACTCCATTCAGCTTCTTCGGAACCTGTTCGGAGGAATTAAACGGGCACCCATACACCCCCATCCCCTTTCTGCAACTTAAGTATGTGTGCTCGTGATCTTGACTCCCACGGAATGGATCGATCCGCTGGAGAACAAACTGCTAGATCCACATCCTCCCTTCCCCTGGGAGGACCTTGGTCCTCCCACATCCTCCCCCCAGCCTGACGTACCACAGGCTGTGTGAAGCCCCCGCGAAAGCTGCTCACGTGGCAATTGTGGGTCCCCCCTTCATCAAGACACCAGGTCTTTCCTCCTTAAGGCTAGCCCCGATGTGTGAATTCACATTGGGCAACTAGTGGTGTCACTGTGCGCTCCCAATCTCGGCCGCGGAGTGCTGTTCCCCAAGCCAAACCCCTGGCCCTTCACTATGTGCCTGGCAAGCATACCTGAGAAGGTGTTCCGCTGTGGCTGCCAGCCTGGTAACAGGTGCCCCAGTGTGCGTAACCTTCTTCCGTCTTCGGACGGTAGTGATTGGTTAAGATTTGGTGTAAGGTCCATGTGCCAACGCCCTGTGCGGGATGAAACCTCTACTGCCCTAGGAATGCCAGGCAGGTACCCCACCCCCGGGTGGGATCTGAGCCTGGGCTAATTGTCTACGGGTAGTTTCATTTCCAATTCTTTTATGTCGGAGTC", "Expression": "2.03E+07"}
{"molecule": "Aichivirus Chshc7 (nucleic acid, listed as Aichivirus sp.) DNA: TTACTCCATTCAGCTTCTTCGGAACCTGTTCGGAGGAATTAAACGGGCACCCATACATCCCCATCCCCTTTCTGTAACTTAAGTATGTGTGCTTGTAATCTTGACTCCCACGGAATGGATCGATCCGCTGGAGAACAAACTGCTAGATCCACATCCTCCCTTCCCCTGGGAGGACCTTGGTCCTCCCACATCCTCCCCCCAGCCTGACGTACCACAGGCTGTGTGAAGCCCCCGCGAAAGCTGCTCACGTGGCAATTGTGGGTCCCCCCTTCATCAAGACACCAGGTCTTTCCTCCTTAAGGCTAGCCCCGATGTGTGAATTCACATTGGGCAACTAGTGGTGTCACTGTGCGCTCCCAATCTCGGCCGCGGAGTGCTGTTCCCCAAGCCAAACCCCTGGCCCTTCACTATGTGCCTGGCAAGCATATCTGAGAAGGTGTTCCGCTGTGGCTGCCAGCCTGGTAACAGGTGCCCCAGTGTGCGTAACCTTCTTCCGTCTCCGGACGGTAGTGATTGGTTAAGATTTGGTGTAAGGTTCATGTGCCAACGCCCTGTGCGGGATGAAATCTCTACTGCCCTAGGAATGCCAGGCAGGTACCCCACCCTCGGGTGGGATCTGAGCCTGGGCTAATTGTCTACGGGTAGTTTCATTTCCAATCCTTTTATGTCGGAGTC", "Expression": "1.87E+07"}
